# In patent publication US20200123264A1 (Regeneron, published 2020):
# T1: recombinant human LEPR extracellular domain expressed with a C-terminal mouse IgG2a Fc tag (human)
# T1 construct: Dimeric construct; also called hLEPR.mFc; hLEPR-mFc
# T1 chain: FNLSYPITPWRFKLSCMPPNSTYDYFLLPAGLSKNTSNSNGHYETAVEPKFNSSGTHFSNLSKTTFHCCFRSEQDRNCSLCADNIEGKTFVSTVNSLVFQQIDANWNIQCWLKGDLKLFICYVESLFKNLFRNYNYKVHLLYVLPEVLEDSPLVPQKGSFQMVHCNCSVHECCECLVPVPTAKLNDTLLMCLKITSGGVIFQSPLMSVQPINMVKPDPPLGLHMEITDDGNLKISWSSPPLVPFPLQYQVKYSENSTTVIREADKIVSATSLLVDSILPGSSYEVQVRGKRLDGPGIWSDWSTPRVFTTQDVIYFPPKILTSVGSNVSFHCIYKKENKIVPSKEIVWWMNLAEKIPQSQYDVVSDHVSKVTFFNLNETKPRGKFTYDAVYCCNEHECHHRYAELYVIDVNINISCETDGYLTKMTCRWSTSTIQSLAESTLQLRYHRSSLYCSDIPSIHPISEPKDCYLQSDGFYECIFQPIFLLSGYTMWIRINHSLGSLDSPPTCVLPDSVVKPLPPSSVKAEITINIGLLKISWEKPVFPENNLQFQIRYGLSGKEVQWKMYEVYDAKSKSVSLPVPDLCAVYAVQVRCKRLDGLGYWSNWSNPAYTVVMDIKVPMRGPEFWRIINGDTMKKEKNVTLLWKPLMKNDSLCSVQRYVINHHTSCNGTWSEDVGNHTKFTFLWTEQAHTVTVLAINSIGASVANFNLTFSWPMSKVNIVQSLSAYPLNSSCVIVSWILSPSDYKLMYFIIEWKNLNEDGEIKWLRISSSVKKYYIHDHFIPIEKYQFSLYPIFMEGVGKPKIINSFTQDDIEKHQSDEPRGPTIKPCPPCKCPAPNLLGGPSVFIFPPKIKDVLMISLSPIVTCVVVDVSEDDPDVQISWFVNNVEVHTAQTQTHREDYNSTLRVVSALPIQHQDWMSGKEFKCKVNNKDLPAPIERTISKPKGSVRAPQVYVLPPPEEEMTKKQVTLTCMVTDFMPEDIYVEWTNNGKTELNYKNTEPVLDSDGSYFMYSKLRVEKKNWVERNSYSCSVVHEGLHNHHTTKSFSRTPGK
# Assays:
# [1] = biological target: T2, recombinant cynomolgus monkey LEPR extracellular domain expressed with a C-terminal myc-myc-hexahistidine tag (cynomolgus monkey, UniProt Q9MYL0 22-837 (rhesus entry)); assay: SPR, mAb captured, 37 C
# T2 construct: Monomeric construct; also called mfLEPR.MMH; mfLEPR-MMH
# Procedure: (§1) Equilibrium dissociation constants (KD values) for antigen binding to purified anti-LEPR monoclonal antibodies of the invention were determined using a real-time surface plasmon resonance biosensor using a Biacore 4000 instrument. All binding studies were performed in running buffer containing 10 mM HEPES, 150 mM NaCl, 3 mM EDTA, and 0.05% v/v Surfactant Tween-20, pH 7.4 (HBS-ET running buffer) at 25° C. and 37° C. The Biacore sensor surface was first derivatized by amine coupling with a monoclonal mouse anti-human Fc antibody (GE, # BR-1008-39) to the capture anti-LEPR monoclonal antibodies. The LEPR reagents tested for binding to the anti-LEPR monoclonal antibodies included recombinant human LEPR extracellular domain expressed with a C-terminal myc-myc-hexahistidine tag (hLEPR.MMH; SEQ ID NO:90), recombinant cynomolgus monkey LEPR extracellular domain expressed with a C-terminal myc-myc-hexahistidine tag (mfLEPR.MMH; SEQ ID NO:93), recombinant mouse LEPR extracellular domain expressed with a C-terminal myc-myc-hexahistidine tag (mLEPR.MMH; SEQ ID NO:94), recombinant rat LEPR extracellular domain expressed with a C-terminal myc-myc-hexahistidine tag (rLEPR.MMH; SEQ ID NO:95), and recombinant human LEPR extracellular domain expressed with a C-terminal mouse IgG2a Fc tag (hLEPR.mFc; SEQ ID NO:91). LEPR constructs that include MMH tags are monomeric LEPR constructs, and LEPR constructs including an mFc tag are dimeric LEPR constructs. […] The dissociation of monoclonal antibody bound LEPR reagent was monitored for 10 minutes in HBS-ET running buffer. Kinetic association (10 and dissociation (10 rate constants were determined by fitting the real-time binding sensorgrams to a 1:1 binding model with mass transport limitation using Scrubber 2.0c curve-fitting software. Binding dissociation equilibrium constants (KD) and dissociative half-lives (t½) were calculated from the kinetic rate constants as: […]
# [2] = biological target: T1, recombinant human LEPR extracellular …; assay: SPR, mAb captured, 37 C
# Procedure: as §1
# [3] = biological target: T3, recombinant human LEPR extracellular domain expressed with a C-terminal myc-myc-hexahistidine tag (human, UniProt P48357 22-839); assay: SPR, mAb captured, 37 C
# T3 construct: Monomeric construct; also called hLEPR.MMH; hLEPR-MMH
# Procedure: as §1
# [4] = biological target: T4, recombinant rat LEPR extracellular domain expressed with a C-terminal myc-myc-hexahistidine tag (rat, UniProt Q62959 22-839); assay: SPR, mAb captured, 37 C
# T4 construct: Monomeric construct; also called rLEPR.MMH; rLEPR-MMH
# T4 sequence (Q62959 other isoform, or with tags, fused parts or gaps): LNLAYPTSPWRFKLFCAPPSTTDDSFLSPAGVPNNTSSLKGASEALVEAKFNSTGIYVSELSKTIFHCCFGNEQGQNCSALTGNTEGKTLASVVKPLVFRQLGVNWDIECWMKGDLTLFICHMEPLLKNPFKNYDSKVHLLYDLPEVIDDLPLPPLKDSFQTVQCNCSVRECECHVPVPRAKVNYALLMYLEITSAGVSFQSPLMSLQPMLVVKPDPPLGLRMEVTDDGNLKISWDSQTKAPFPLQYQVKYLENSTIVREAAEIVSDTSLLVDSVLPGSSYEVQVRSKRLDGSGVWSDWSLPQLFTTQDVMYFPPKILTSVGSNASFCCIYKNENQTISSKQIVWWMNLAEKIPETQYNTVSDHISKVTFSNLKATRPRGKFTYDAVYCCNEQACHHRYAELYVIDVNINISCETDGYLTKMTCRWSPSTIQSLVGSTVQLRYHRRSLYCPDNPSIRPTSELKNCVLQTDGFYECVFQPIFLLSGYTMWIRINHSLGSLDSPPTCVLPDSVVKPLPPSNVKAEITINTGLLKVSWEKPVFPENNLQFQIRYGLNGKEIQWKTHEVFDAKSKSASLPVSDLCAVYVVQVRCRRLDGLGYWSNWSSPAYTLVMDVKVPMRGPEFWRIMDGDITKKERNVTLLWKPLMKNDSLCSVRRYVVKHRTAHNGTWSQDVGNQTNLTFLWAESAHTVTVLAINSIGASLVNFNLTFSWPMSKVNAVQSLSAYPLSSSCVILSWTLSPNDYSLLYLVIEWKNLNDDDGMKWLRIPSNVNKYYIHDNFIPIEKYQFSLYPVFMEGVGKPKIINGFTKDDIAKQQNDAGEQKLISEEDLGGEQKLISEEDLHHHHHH
# Procedure: as §1
# [5] = biological target: T5, recombinant mouse LEPR extracellular domain expressed with a C-terminal myc-myc-hexahistidine tag (mouse, UniProt P48356 22-839); assay: SPR, mAb captured, 37 C
# T5 construct: Monomeric construct; also called mLEPR.MMH; mLEPR-MMH
# T5 sequence (P48356 other isoform, or with tags, fused parts or gaps): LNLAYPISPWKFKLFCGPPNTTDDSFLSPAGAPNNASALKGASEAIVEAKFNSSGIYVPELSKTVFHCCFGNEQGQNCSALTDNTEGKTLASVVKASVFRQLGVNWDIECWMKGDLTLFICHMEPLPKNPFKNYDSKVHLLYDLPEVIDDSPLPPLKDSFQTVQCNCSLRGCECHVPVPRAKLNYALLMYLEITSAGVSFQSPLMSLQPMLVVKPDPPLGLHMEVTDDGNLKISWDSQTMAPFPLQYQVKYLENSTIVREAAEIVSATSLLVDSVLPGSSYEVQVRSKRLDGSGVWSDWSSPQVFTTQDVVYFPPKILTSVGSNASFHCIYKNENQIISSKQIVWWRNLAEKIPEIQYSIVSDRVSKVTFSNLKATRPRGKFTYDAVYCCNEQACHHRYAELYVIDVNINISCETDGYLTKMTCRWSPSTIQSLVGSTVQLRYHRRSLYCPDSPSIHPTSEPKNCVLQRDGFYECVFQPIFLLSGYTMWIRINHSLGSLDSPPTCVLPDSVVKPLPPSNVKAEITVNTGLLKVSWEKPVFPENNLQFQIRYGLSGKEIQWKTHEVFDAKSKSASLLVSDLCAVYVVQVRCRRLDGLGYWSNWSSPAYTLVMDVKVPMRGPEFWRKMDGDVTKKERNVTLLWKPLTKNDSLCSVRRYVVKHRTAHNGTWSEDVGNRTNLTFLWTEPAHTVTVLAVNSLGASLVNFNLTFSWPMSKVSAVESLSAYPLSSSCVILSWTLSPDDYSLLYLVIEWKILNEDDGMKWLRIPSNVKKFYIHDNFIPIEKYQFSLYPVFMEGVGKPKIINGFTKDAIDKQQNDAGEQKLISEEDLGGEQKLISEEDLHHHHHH
# Procedure: as §1
# [6] = biological target: T2, recombinant cynomolgus monkey LEPR …; assay: SPR, mAb captured, 25 C
# Procedure: as §1
# [7] = biological target: T1, recombinant human LEPR extracellular …; assay: SPR, mAb captured, 25 C
# Procedure: as §1
# [8] = biological target: T5, recombinant mouse LEPR extracellular …; assay: SPR, mAb captured, 25 C
# Procedure: as §1
binder,measurement,setting,value
"H4H18439P2 (antibody, human IgG4, V domains shown, H4H prefix: human IgG4 Fc) VH: QLQLQESGPGLVKPSETLSLTCIVSGGDITSSSYYWNWIRQPPGKGLEWIGNIYYSGSTNYNPSLKSRVTISIDTSKSQFSLKLRSVTAADTAVYYCARLLRYFDWSKGYLDYWGQGTLVTVSS VL: not shown",100 nM mfLEPR-MMH Bound (RU),[1],14 RU
same,Kd,[1],169 nM
same,koff,[1],0.00792 s⁻¹
same,kon,[1],46900 M⁻¹ s⁻¹
same,t½,[1],1.5 min
same,100 nM hLEPR-mFc Bound (RU),[2],67 RU
same,Kd,[2],15.1 nM
same,koff,[2],0.000923 s⁻¹
same,kon,[2],60900 M⁻¹ s⁻¹
same,t½,[2],13 min
same,100 nM hLEPR-MMH Bound (RU),[3],19 RU
same,Kd,[3],202 nM
same,koff,[3],0.00469 s⁻¹
same,kon,[3],23200 M⁻¹ s⁻¹
same,t½,[3],2.5 min
same,100 nM rLEPR-MMH Bound (RU),[4],0 RU
same,100 nM mLEPR-MMH Bound (RU),[5],-1 RU
same,100 nM mfLEPR-MMH Bound (RU),[6],22 RU
same,Kd,[6],96.3 nM
same,koff,[6],0.00152 s⁻¹
same,kon,[6],15700 M⁻¹ s⁻¹
same,t½,[6],8 min
same,100 nM hLEPR-mFc Bound (RU),[7],53 RU
same,Kd,[7],3.69 nM
same,koff,[7],0.00018 s⁻¹
same,kon,[7],48700 M⁻¹ s⁻¹
same,t½,[7],64 min
same,100 nM mLEPR-MMH Bound (RU),[8],-2 RU
"H4H18437P2 (antibody, human IgG4, V domains shown, H4H prefix: human IgG4 Fc) VH: QVQLVESGGGVVQPGRSLRLSCAASGFTFSSYGIHWVRQAPGKGLEWVAVISYDGNNKYYADSVKGRFTISRDNSKNTLYLQMNSLRAEDTAVYYCAKDLFLEWLFHGMGVWGQGTTVTVSS VL: not shown",100 nM mfLEPR-MMH Bound (RU),[1],58 RU
same,Kd,[1],147 nM
same,koff,[1],0.0127 s⁻¹
same,kon,[1],86900 M⁻¹ s⁻¹
same,t½,[1],0.9 min
same,100 nM hLEPR-mFc Bound (RU),[2],88 RU
same,Kd,[2],4.3 nM
same,koff,[2],0.000556 s⁻¹
same,kon,[2],129000 M⁻¹ s⁻¹
same,t½,[2],21 min
same,100 nM hLEPR-MMH Bound (RU),[3],55 RU
same,Kd,[3],77.6 nM
same,koff,[3],0.00884 s⁻¹
same,kon,[3],114000 M⁻¹ s⁻¹
same,t½,[3],1.3 min
same,100 nM rLEPR-MMH Bound (RU),[4],10 RU
same,Kd,[4],629 nM
same,koff,[4],0.0193 s⁻¹
same,kon,[4],30700 M⁻¹ s⁻¹
same,t½,[4],0.6 min
same,100 nM mLEPR-MMH Bound (RU),[5],6 RU
same,Kd,[5],1160 nM
same,koff,[5],0.0133 s⁻¹
same,kon,[5],11500 M⁻¹ s⁻¹
same,t½,[5],0.9 min
same,100 nM mfLEPR-MMH Bound (RU),[6],70 RU
same,Kd,[6],58.9 nM
same,koff,[6],0.00405 s⁻¹
same,kon,[6],68700 M⁻¹ s⁻¹
same,t½,[6],2.9 min
same,100 nM hLEPR-mFc Bound (RU),[7],70 RU
same,Kd,[7],5.27 nM
same,koff,[7],0.000536 s⁻¹
same,kon,[7],102000 M⁻¹ s⁻¹
same,t½,[7],22 min
same,100 nM mLEPR-MMH Bound (RU),[8],6 RU
same,Kd,[8],264 nM
same,koff,[8],0.00418 s⁻¹
same,kon,[8],15800 M⁻¹ s⁻¹
same,t½,[8],2.8 min
"H4H17322P2 (antibody, human IgG4, V domains shown, H4H prefix: human IgG4 Fc) VH: QLQLQESGPGLVKPSETLSLTCTVSGASISSSRFYGGWIRQPPGKGLEWIGDIYYSGNTYYNPSLQSRVTISVDTSKNQFSLKLSSVTAADTAVYYCARHLMITFGGLIVEGFDIWGQGTMVTVSS VL: not shown",100 nM mfLEPR-MMH Bound (RU),[1],142 RU
same,Kd,[1],7.72 nM
same,koff,[1],0.0011 s⁻¹
same,kon,[1],143000 M⁻¹ s⁻¹
same,t½,[1],10 min
same,100 nM hLEPR-mFc Bound (RU),[2],105 RU
same,Kd,[2],3.31 nM
same,koff,[2],0.00044 s⁻¹
same,kon,[2],133000 M⁻¹ s⁻¹
same,t½,[2],26 min
same,100 nM hLEPR-MMH Bound (RU),[3],99 RU
same,Kd,[3],11.7 nM
same,koff,[3],0.000812 s⁻¹
same,kon,[3],69500 M⁻¹ s⁻¹
same,t½,[3],14 min
same,100 nM rLEPR-MMH Bound (RU),[4],9 RU
same,Kd,[4],352 nM
same,koff,[4],0.0328 s⁻¹
same,kon,[4],93200 M⁻¹ s⁻¹
same,t½,[4],0.4 min
same,100 nM mLEPR-MMH Bound (RU),[5],-1 RU
same,100 nM mfLEPR-MMH Bound (RU),[6],102 RU
same,Kd,[6],4.16 nM
same,koff,[6],0.000292 s⁻¹
same,kon,[6],70200 M⁻¹ s⁻¹
same,t½,[6],40 min
same,100 nM hLEPR-mFc Bound (RU),[7],74 RU
same,Kd,[7],1.77 nM
same,koff,[7],0.000114 s⁻¹
same,kon,[7],64500 M⁻¹ s⁻¹
same,t½,[7],102 min
same,100 nM mLEPR-MMH Bound (RU),[8],0 RU
